Experiments:
[1] = biological target: AspBHI, modification-dependent restriction endonuclease from Azoarcus sp. BH72 (Azoarcus sp. BH72); test: SEC
[2] = biological target: AspBHI, modification-dependent restriction endonuclease from Azoarcus sp. BH72 (Azoarcus sp. BH72); test: crystal structure

stoichiometry N [1]: 4
stoichiometry N [2]: 4
Substance: AspBHI, modification-dependent restriction endonuclease from Azoarcus sp. BH72 (enzyme)

Source: paper PMC3946040
